The source of these data is patent US20230279018A1, “AP[…] INHIBITION” (priority 2020, published 2023).

In assay [1] the target is T1, Plasmodium vivax cytoplasmic phenylalanyl-tRNA synthetase (PvcFRS) beta subunit (PVX_090880) (Plasmodium vivax, UniProt A5K464 1-617).
T1 construct: Said to be full-length; Tag or fusion residues from the vector are not described; Two copies stand in the α2β2 heterotetramer; also called PvcFRS β subunit; PvFRS β subunit
T1 sequence: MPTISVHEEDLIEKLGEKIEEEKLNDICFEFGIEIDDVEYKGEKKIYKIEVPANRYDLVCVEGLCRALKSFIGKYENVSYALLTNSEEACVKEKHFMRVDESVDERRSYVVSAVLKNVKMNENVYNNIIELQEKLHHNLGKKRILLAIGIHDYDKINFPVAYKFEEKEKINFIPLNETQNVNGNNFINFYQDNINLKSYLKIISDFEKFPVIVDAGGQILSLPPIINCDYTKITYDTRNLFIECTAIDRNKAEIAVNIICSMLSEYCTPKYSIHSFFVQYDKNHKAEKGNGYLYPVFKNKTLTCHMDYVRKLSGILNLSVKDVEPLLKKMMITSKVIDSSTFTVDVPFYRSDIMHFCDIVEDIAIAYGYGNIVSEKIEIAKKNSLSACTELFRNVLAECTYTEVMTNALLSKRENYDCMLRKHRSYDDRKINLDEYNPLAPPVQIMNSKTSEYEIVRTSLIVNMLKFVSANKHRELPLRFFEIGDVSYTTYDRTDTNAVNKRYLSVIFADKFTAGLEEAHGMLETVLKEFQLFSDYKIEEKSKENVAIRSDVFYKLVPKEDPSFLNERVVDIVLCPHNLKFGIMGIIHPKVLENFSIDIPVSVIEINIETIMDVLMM
As to the kind of experiment: analytical gel filtration (Superdex 200) of co-expressed, co-purified alpha and beta subunits. (SEC sorts molecules by how far they enter the pores of the column.)

In assay [2] the target is T2, Plasmodium falciparum cytoplasmic phenylalanyl-tRNA synthetase (PfcFRS) beta subunit (Plasmodium falciparum).
T2 construct: Tags are not described; also called PfcFRS β subunit; Pf-β
T2 chain: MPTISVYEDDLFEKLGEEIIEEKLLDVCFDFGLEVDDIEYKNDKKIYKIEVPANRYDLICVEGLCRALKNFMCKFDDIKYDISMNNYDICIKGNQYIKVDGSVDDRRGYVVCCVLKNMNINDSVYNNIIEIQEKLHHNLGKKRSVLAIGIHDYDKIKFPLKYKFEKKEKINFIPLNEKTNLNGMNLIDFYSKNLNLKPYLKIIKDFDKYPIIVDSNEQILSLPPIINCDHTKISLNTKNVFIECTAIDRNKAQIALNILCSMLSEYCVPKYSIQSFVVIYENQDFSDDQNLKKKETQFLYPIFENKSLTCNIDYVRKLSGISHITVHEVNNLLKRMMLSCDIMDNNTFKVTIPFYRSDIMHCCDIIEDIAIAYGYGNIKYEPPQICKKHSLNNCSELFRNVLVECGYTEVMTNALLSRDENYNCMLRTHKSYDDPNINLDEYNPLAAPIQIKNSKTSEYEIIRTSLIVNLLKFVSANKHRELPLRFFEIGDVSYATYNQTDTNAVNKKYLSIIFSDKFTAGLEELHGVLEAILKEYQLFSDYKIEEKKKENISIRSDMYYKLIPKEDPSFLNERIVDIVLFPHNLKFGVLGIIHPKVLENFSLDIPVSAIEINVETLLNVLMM
As to the kind of experiment: SDS-PAGE of the final purified protein (co-purification of the α and β subunits).

B1: Plasmodium vivax cytoplasmic phenylalanyl-tRNA synthetase (PvcFRS) alpha subunit (PVX_081300) (enzyme)
chain: MQAKAQEEQKGEELSQFLQALEEEFALCQEGGGDKREADGPSLENAEAEELANRRAYYLQLKEERNVLVEESKHVTSLHMSSKHNIEHAKVLGMAKKLETLYYVVNHVRSFNTYQLTEEGKEYLRDGSPEHVTLRYVMEQEGCTLEDLKKLFGKKGEIGLNINLKKKKIELRKSDKRLFPHVEGSAHSLVDETRCYLQKVEAHGNDEGALVSHLKGILPPEKGEKKEEDEANNLIKELKKRKLIEAKKISYIYIIRTNLFTKEIKKQITDLTYLLIKNEEYKKYQVKKYNFFSSGKKMNKGNIHLLIRQMRTFKDVFVSLGFEEMNTHNYVESSFWCFDALYIPQQHPSRDLQDTFFIKVPEMCQEEFTDQSYIENVKRVHSVGDYGSFGWNYQWELKSTKKNVLRTHTTANSCRALFQLAKEYQKTGSIIPKKFFSIDRVFRNENLDSTHLAEFHQVEGLIIDRNLGLSHLIGTLSAFYKYIGISKLRFKPTFNPYTEPSMEVYGYHEENKKWLEVGNSGIFRPEMLRAMGFPPEVSVIAWGLSLERPTMIKYSIRNIRDLFGYRSVI
notes: Said to be full-length; Tag residues from the vector are not described; Two copies stand in the α2β2 heterotetramer; Residues 1-270 were disordered in the crystal; also called PvcFRS α subunit; PvFRS α subunit
Take B1: the binding result in assay [1] is “binds”.

B2: Plasmodium falciparum cytoplasmic phenylalanyl-tRNA synthetase (PfcFRS) alpha subunit (enzyme)
chain: MSTNNVEEKKNEELYNLLNILEEEFNLSKIENKNNNKNDDGDDDDVNKREDNNNNEYYKKLKDEKGLDVLINEYTTSLKISKKYNIDHNKVMGMIKKLETLYYIINLIKSFNTYHLSDEGKQYLKEGSPEFIVIKYVIQNNKCTLEDLKKNLGKIGDIGLNTNLKNRTIQLNKADKCLTCNCNLHDIQDFTQIYLDIINQYGHDEELLFAHLKNKNHTKNALNNNEMKNSCKDNNIINNLIQDLKKRKLLEIKKNSYSHVIKTSIFKKDIKKQITDINYLLLKNEEYKKYDIKKYNFFSSGKKINKGNIHLLTKQMRTFKEIFFSLGFEEMETHNYVESSFWCFDALYIPQQHPSRDLQDTFFIKEPETCIDKFVDTEYIDNIKRVHTHGDYGSFGWNYKWKLEESKKNVLRTHTTANSCRALFKLAKEYKEAGCIKPKKYFSIDRVFRNENLDSTHLAEFHQVEGLIIDKNIGLSHLIGTLAAFYKHIGIHKLKFKPTFNPYTEPSMEIYGYHEQSKKWLEVGNSGIFRPEMLRSMGFSEEVSVIAWGLSLERPTMIKYNIKNIRDLFGYKSVV
notes: Tags are not described; also called PfcFRS α subunit
With B2, the binding result in assay [2] is reported as “binds”.
